Patent EP4755917A1 (Fortvita Biologics Inc., dated 2026)

T1: Human OX40L (antigen of the ForteBio affinity assay) (human, UniProt P23510 51-183, limits assumed)
T1 construct: It may be the Acro His-tagged protein, but nothing ties it to that; also called CD252; CD134L
T1 sequence (looked up): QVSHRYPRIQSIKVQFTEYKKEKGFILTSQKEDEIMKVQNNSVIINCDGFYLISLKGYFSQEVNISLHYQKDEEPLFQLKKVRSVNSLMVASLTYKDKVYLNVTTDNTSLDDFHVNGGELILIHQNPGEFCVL

B1: HZ22 (antibody, human IgG4 S228P, kappa, V domains shown)
VH: QVQLQESGPGLVKPSQTLSLTCTVSGYAVTGDYAWSWIRQPPGKRLEWIGYISSSAGTNYNPSLKSRVTISVDTSKNQFSLKLSSVTAADTAVYYCARDLYYGGRNQWYFDVWGQGTLVTVSS
VL: DIQMTQSPSSLSASVGDRVTITCSATSSIIYMHWYQQKPGKAPKLLIYDTSKLPSGVPSRFSGSGSGTDFTLTISSLQPEDFATYYCHQRSSFPFTFGGGTKVEIKR
notes: Humanized antibody expressed in HEK293; also called humanized anti-OX40L antibody
B2: HZ18 (antibody, human IgG4 S228P, kappa, V domains shown)
VH: EVQLVQSGAEVKKPGATVKISCKVSGYSFTGYRIHWVQQAPGKGLEWMGYVDPYDDKTDYSQKSKGRVTITADTSTDTAYMELSSLRSEDTAVYYCAREGFAYWGQGTLVTVSS
VL: DIQMTQSPSSLSASVGDRVTITCTSSSSLRYMHWYQQKPGKAPKLLIYNTFDLASGVPSRFSGSGSGTDFTLTISSLQPEDFATYYCQQRTTYPPTFGQGTKLEIKR
notes: as for B1

Target: T1, Human OX40L (antigen of the ForteBio …)
Assay: ForteBio (biolayer interferometry)

Row | Kd | Binder
1 | 0.379 nM | B1
2 | 0.307 nM | B2
